From patent US12065466B2, “Methods and compositions for protein sequencing” (Quantum-Si Incorporated, priority 2020, dated 2024)

B1: PS408: ClpS protein, SEQ ID NO: 31 (protein)
chain: MTDPPSKGREDVDLATRTKPKTQRPPLYKVLLLNDDFTPMEFVVHILERLFGMTHAQAIEIMLTVHRKGVAVVGVFSHEIAETKVAQVMELARRQQHPLQCTMEKE
B2: PS410: ClpS protein, SEQ ID NO: 33 (protein)
chain: MGDDDQSSREGEGDVAFQTADPELKRPSLYRVVLLNDDYTPMEFVVHILEQFFAMNREKATQVMLAVHTQGKGVCGVYTKDIAETKAALVNDYSRENQHPLLCEVEELDDESR
B3: PS409: ClpS protein, SEQ ID NO: 32 (protein)
chain: MPARLTDIEGEPNTDPVEDVLLADPELKKPQMYAVVMYNDDYTPMEFVVDVLQNHFKHTLDSAISIMLAIHQQGKGIAGIYPKDIAETKAQTVNRKARQAGYPLLSQIEPQG
B4: PS397: ClpS protein, SEQ ID NO: 25 (protein)
chain: MSDNEVAPKRKTRVKPKLERPRLYKVILVNDDYTPRDFVVMVLKAIFRMSEEAGYRVMMTAHKLGTSVVVVCARDIAETKAKEATDLGKEAGFPLMFTTEPEE
B5: PS404: ClpS protein, SEQ ID NO: 27 (protein)
chain: MPVSVTAPQTKTKTKPKVERPKLYKVILVNDDFTPREFVVRVLKAEFRMSEDQAAKVMMTAHQRGVCVVAVFTRDVAETKATRATDAGRAKGYPLLFTTEPEE
B6: PS398: ClpS protein, SEQ ID NO: 26 (protein)
chain: MPLKAQNRSIVGRRDEWPPPTTQSSSETKSESKRVSDTGADTKRKTKTVPKVEKPRLYKVILVNDDYTPREFVLVVLKAVFRMSEDQGYKVMITAHQKGSCVVAVYTRDIAETKAKEAVDLAKEIGFPLMFRTEPEE
B7: PS369: ClpS protein, SEQ ID NO: 2 (protein)
chain: MTSTLRARPARDTDLQHRPYPHYRIIVLDDDVNTFQHVVNCLVTFLPGMTRDQAWAMAQQVDGEGSAVVWTGPQEQAELYHVQLGNHGLTMAPLEPV
B8: PS405: ClpS protein, SEQ ID NO: 28 (protein)
chain: MVSIGAATVACAEGRPIFSGYFDWLAAMPETVTVPRTRLRPKTERPKLHKVILVNDDYTPREFVVTVLKGEFHMSEDQAQRVMITAHRRGVCVVAVFTKDVAETKATRASDAGRAKGYPLQFTTEPEE
B9: PS407: ClpS protein, SEQ ID NO: 30 (protein)
chain: MPSNKRQMCLSDIKNSFNESGIVDWHISPRLANEPSEEGDSDLAVQTVPPELKRPPLYAVVLLNDDYTPMEFVIEILQQYFAMNLDQATQVMLTVHYEGKGVAGVYPRDIAETKANQVNNYARSQGHPLLCQIEPKD
B10: PS406: ClpS protein, SEQ ID NO: 29 (protein)
chain: MPDATTTPRTKTLTRTARPPLHKVILVNDDFTPREFVVRLLKAEFRTTGDEAQRIMITAHMKGSCVVAVFTREIAESKATRATETARAEGFPLLFTTEPEE
B11: PS396: ClpS protein, SEQ ID NO: 24 (protein)
chain: MSDNDVALKPKIKSKPKLERPKLYKVILVNDDFTPREFVIAVLKMVFRMSEETGYRVMLTAHRLGTSVVVVCARDIAETKAKEAVDFGKEAGFPLMFTTEPEE

System: amino acid at a terminal position of a polypeptide
Assay: Amino acid binding preference of recognition proteins (Tables 1 and 2)
Conditions: Table 1, ClpS proteins; amino acid identity at a terminal position of a polypeptide; inferred from literature and/or demonstrated by the inventors
Description: It should be appreciated that these sequences and other examples described herein are meant to be non-limiting, and recognition molecules in accordance with the application can include any homologs, variants thereof, or fragments thereof minimally containing domains or subdomains responsible for peptide recognition.

Molecule | Binding Pref.
B1 | F, Y, W, L
B2 | F, W, L
B3 | F, Y, W, L
B4 | F, Y, W
B5 | F, Y, W
B6 | F, W
B7 | F, Y, W, L
B8 | F, Y, W
B9 | F, Y, W, L
B10 | F, Y, W
B11 | F, W
